Laboratory results taken from the Human Domainome abundance scans (Beltran et al. 2025).
± gives the uncertainty stated by the source.

B1: Ankyrin-3, residues 4094 to 4171; numbered along this chain, Q12955 (parent)
chain: MAIVADHLGLSWTELARELNFSVDEINQIRVENPNSLISQSFMLLKKWVTRDGKNATTDALTSVLTKINRIDIVTLLE

Variants of: B1
Assay: abundance fitness (aPCA) (normalised: wild type 0, dead -1); higher = more abundant; growth selection in yeast, the domain comes from the species named
Settings: Homo sapiens

Variant	abundance fitness
A5H	-0.716 ± 0.43
A5V	-0.484 ± 0.068
A5I	-0.74 ± 0.31
A5W	-0.765 ± 0.13
A5T	-0.774 ± 0.18
A5P	-0.899 ± 0.26
A5C	-0.359 ± 0.12
A5R	-0.498 ± 0.076
A5K	-0.648 ± 0.18
A5L	-0.921 ± 0.19
A5Y	-0.745 ± 0.34
H7G	-0.705 ± 0.062
H7I	-0.642 ± 0.26
H7D	-0.796 ± 0.22
H7Q	-0.043 ± 0.066
H7N	-0.292 ± 0.15
H7A	-0.11 ± 0.051
H7L	-0.366 ± 0.055
H7T	-0.175 ± 0.069
H7V	-0.202 ± 0.057
H7R	-0.05 ± 0.048
H7S	-0.358 ± 0.065
H7C	-0.637 ± 0.13
H7Y	-0.444 ± 0.13

Variant	abundance fitness
H7W	-0.802 ± 0.21
H7P	-0.881 ± 0.11
H7K	-0.016 ± 0.1
H7E	0.011 ± 0.074
H7F	-0.521 ± 0.22
H7M	-0.12 ± 0.085
I3R	-0.321 ± 0.05
I3G	-0.506 ± 0.06
I3Q	-0.33 ± 0.076
I3S	-0.411 ± 0.062
I3C	-0.225 ± 0.12
I3D	-0.489 ± 0.16
I3K	-0.27 ± 0.11
I3P	-0.46 ± 0.087
I3Y	-0.486 ± 0.16
I3E	-0.342 ± 0.083
I3H	-0.523 ± 0.17
I3M	-0.081 ± 0.096
I3V	-0.05 ± 0.053
I3L	-0.027 ± 0.051
R17F	-0.108 ± 0.15
R17N	0.231 ± 0.2
R17L	-0.06 ± 0.051
R17W	-0.101 ± 0.1

Variant	abundance fitness
R17G	-0.163 ± 0.058
R17T	-0.037 ± 0.063
R17P	-0.869 ± 0.27
R17I	-0.412 ± 0.3
R17S	-0.08 ± 0.04
R17C	-0.076 ± 0.12
R17A	-0.033 ± 0.068
R17D	-0.203 ± 0.13
R17H	-0.182 ± 0.13
R17K	0.143 ± 0.083
R17Q	-0.273 ± 0.12
R17V	-0.161 ± 0.059
R17Y	-0.061 ± 0.092
R17M	-0.053 ± 0.099
R17E	-0.074 ± 0.1
L10G	-0.043 ± 0.052
L10M	-0.114 ± 0.094
L10W	-0.101 ± 0.078
L10C	-0.016 ± 0.089
L10R	-0.022 ± 0.052
L10F	0.032 ± 0.062
L10N	-0.133 ± 0.21
L10P	-0.04 ± 0.086
L10S	0.081 ± 0.053

Variant	abundance fitness
L10Y	-0.104 ± 0.2
L10T	-0.046 ± 0.079
L10D	-0.011 ± 0.11
L10H	0.124 ± 0.079
L10V	0.029 ± 0.06
L10I	-0.096 ± 0.19
L10E	0.05 ± 0.071
L10Q	0.04 ± 0.074
L10A	-0.064 ± 0.068
V23P	-0.034 ± 0.05
V23N	0.097 ± 0.14
V23F	-0.142 ± 0.092
V23Q	0.16 ± 0.056
V23I	-0.073 ± 0.24
V23D	-0.335 ± 0.16
V23A	-0.12 ± 0.07
V23E	-0.04 ± 0.1
V23L	-0.048 ± 0.042
V23R	-0.027 ± 0.044
V23K	-0.142 ± 0.089
V23C	-0.22 ± 0.1
V23G	-0.004 ± 0.068
V23H	0.02 ± 0.12
W12T	-1.1 ± 0.43

Variant	abundance fitness
W12C	-0.931 ± 0.28
W12M	-0.844 ± 0.25
W12I	-0.738 ± 0.26
W12Q	-0.534 ± 0.3
W12L	-0.838 ± 0.11
W12R	-0.844 ± 0.12
W12A	-0.862 ± 0.16
W12E	-0.903 ± 0.2
W12S	-0.968 ± 0.15
W12P	-0.433 ± 0.11
W12V	-0.753 ± 0.11
D6F	-0.658 ± 0.36
D6N	-0.067 ± 0.3
D6W	-0.517 ± 0.079
D6V	-0.296 ± 0.07
D6S	-0.258 ± 0.063
D6K	0.155 ± 0.038
D6Y	-0.342 ± 0.12
D6L	-0.352 ± 0.063
D6M	-0.299 ± 0.17
D6R	-0.163 ± 0.048
D6E	0.096 ± 0.069
D6C	-0.418 ± 0.14
D6P	-0.238 ± 0.078

Variant	abundance fitness
D6I	-0.755 ± 0.42
D6G	-0.156 ± 0.05
D6A	-0.25 ± 0.069
S11D	0.092 ± 0.13
S11A	-0.31 ± 0.073
S11Q	-0.053 ± 0.076
S11M	-0.94 ± 0.24
S11P	-1.03 ± 0.24
S11G	-0.261 ± 0.056
S11C	-0.342 ± 0.087
S11F	-0.654 ± 0.19
S11I	-0.422 ± 0.19
S11E	-0.326 ± 0.066
S11L	-0.963 ± 0.12
S11T	-0.314 ± 0.06
S11K	-0.761 ± 0.25
S11W	-1.05 ± 0.25
S11N	0.009 ± 0.23
S11R	-0.965 ± 0.12
S11V	-0.84 ± 0.11
E14C	-0.23 ± 0.14
E14M	-0.185 ± 0.094
E14V	-0.02 ± 0.057
E14I	-0.278 ± 0.14

Variant	abundance fitness
E14P	-0.583 ± 0.09
E14G	-0.426 ± 0.063
E14S	-0.098 ± 0.057
E14W	-0.469 ± 0.14
E14K	-0.347 ± 0.15
E14D	-0.074 ± 0.085
E14L	-0.306 ± 0.065
E14H	-0.156 ± 0.12
E14A	-0.082 ± 0.068
E14Y	-0.432 ± 0.15
E14Q	-0.02 ± 0.056
E14R	-0.289 ± 0.05
E14T	-0.198 ± 0.086
L19V	-0.651 ± 0.1
L19I	-0.333 ± 0.14
L19W	-0.494 ± 0.078
L19G	-1.01 ± 0.15
L19P	-0.855 ± 0.12
L19M	-0.33 ± 0.14
L19Q	-0.781 ± 0.22
L19A	-0.591 ± 0.089
L19T	-0.927 ± 0.28
L19S	-1.05 ± 0.18
L19R	-0.79 ± 0.094

Variant	abundance fitness
L19C	-0.793 ± 0.23
L19H	-0.694 ± 0.25
S22Y	-0.646 ± 0.37
S22C	0.048 ± 0.5
M1A	-0.322 ± 0.1
M1Y	0.23 ± 0.45
M1T	-0.801 ± 0.4
M1E	-0.365 ± 0.13
M1K	-0.421 ± 0.1
M1I	-0.321 ± 0.37
M1V	-0.151 ± 0.08
M1D	-0.643 ± 0.42
M1C	-0.198 ± 0.23
M1N	-0.099 ± 0.28
M1G	-0.566 ± 0.11
M1R	-0.265 ± 0.11
M1H	-0.587 ± 0.44
L8Y	-0.63 ± 0.3
L8G	-0.983 ± 0.14
L8M	-0.574 ± 0.15
L8F	-0.463 ± 0.4
L8S	-0.916 ± 0.17
L8Q	-0.755 ± 0.19
L8A	-1.07 ± 0.23

Variant	abundance fitness
L8V	-0.769 ± 0.11
L8W	-0.552 ± 0.15
L8E	-0.984 ± 0.22
L8R	-0.829 ± 0.11
L8P	-1 ± 0.19
L8C	-0.787 ± 0.22
L8K	-0.696 ± 0.36
V4S	-0.766 ± 0.22
V4W	-1.01 ± 0.38
V4R	-0.925 ± 0.11
V4Q	-0.659 ± 0.19
V4L	-0.397 ± 0.057
V4P	-0.921 ± 0.15
V4K	-0.806 ± 0.29
V4N	-0.663 ± 0.22
V4E	-1.01 ± 0.18
V4T	-0.291 ± 0.08
V4M	-0.963 ± 0.23
V4F	-0.789 ± 0.28
V4G	-0.889 ± 0.099
V4A	-0.253 ± 0.073
V4I	-0.169 ± 0.17
E18G	-0.455 ± 0.053
E18K	-0.532 ± 0.3

Variant	abundance fitness
E18A	-0.187 ± 0.053
E18I	-0.721 ± 0.22
E18R	-1.09 ± 0.21
E18D	-0.614 ± 0.3
E18Y	-0.605 ± 0.17
E18C	-0.531 ± 0.12
E18H	-0.317 ± 0.15
E18T	-0.427 ± 0.17
E18S	-0.625 ± 0.095
E18V	-0.148 ± 0.053
E18W	-0.825 ± 0.16
E18F	-0.451 ± 0.13
E18Q	-0.388 ± 0.18
E18M	-0.339 ± 0.16
A16D	-0.813 ± 0.31
A16S	-0.907 ± 0.14
A16L	-0.996 ± 0.15
A16W	-0.79 ± 0.2
A16G	-0.257 ± 0.052
A16R	-0.893 ± 0.17
A16H	-0.601 ± 0.28
A16P	-0.895 ± 0.13
A16T	-0.841 ± 0.21
A16Q	-0.749 ± 0.17

Variant	abundance fitness
A16V	-0.531 ± 0.1
A16N	-0.793 ± 0.23
L15T	-0.891 ± 0.3
L15I	-0.387 ± 0.2
L15V	-0.039 ± 0.059
L15M	-0.073 ± 0.084
L15G	-0.93 ± 0.13
L15F	-0.149 ± 0.096
L15E	-0.766 ± 0.18
L15Q	-0.75 ± 0.33
L15C	-0.433 ± 0.13
L15S	-0.772 ± 0.12
L15R	-0.869 ± 0.11
L15P	-0.741 ± 0.15
F21Y	-0.358 ± 0.18
F21Q	-0.694 ± 0.2
F21W	-0.978 ± 0.22
F21G	-0.7 ± 0.082
F21E	-0.997 ± 0.2
F21S	-0.893 ± 0.13
F21T	-0.869 ± 0.32
F21N	-0.57 ± 0.22
F21A	-0.842 ± 0.14
F21I	-0.665 ± 0.21

Variant	abundance fitness
F21V	-0.81 ± 0.1
F21P	-0.708 ± 0.12
F21C	-1 ± 0.29
F21D	-0.949 ± 0.34
F21H	-0.842 ± 0.4
F21M	-0.561 ± 0.14
G9C	-0.781 ± 0.14
G9W	-0.786 ± 0.17
G9P	-0.868 ± 0.12
G9H	-0.667 ± 0.37
G9V	-0.551 ± 0.11
G9N	-0.047 ± 0.16
G9S	-0.535 ± 0.081
G9Q	-0.39 ± 0.099
G9E	-0.273 ± 0.074
G9M	-0.244 ± 0.11
G9D	-0.503 ± 0.17
G9T	-1 ± 0.29
G9Y	-0.924 ± 0.39
G9A	-0.499 ± 0.074
A2V	-0.146 ± 0.049
A2W	0.169 ± 0.077
A2G	0.14 ± 0.051
A2P	-0.193 ± 0.057

Variant	abundance fitness
A2T	0.077 ± 0.06
A2M	-0.175 ± 0.1
A2F	-0.035 ± 0.11
A2L	-0.126 ± 0.067
A2D	0.173 ± 0.074
A2C	-0.077 ± 0.1
A2E	0.224 ± 0.084
A2Y	-0.037 ± 0.21
A2K	-0.095 ± 0.2
A2H	-0.033 ± 0.077
A2N	0.08 ± 0.16
A2Q	0.058 ± 0.072
A2R	0.149 ± 0.044
T13K	-0.554 ± 0.21
T13N	-0.309 ± 0.19
T13E	0.005 ± 0.084
T13D	-0.35 ± 0.18
T13W	-0.707 ± 0.1
T13Q	-0.201 ± 0.11
T13P	0.101 ± 0.058
T13C	-0.546 ± 0.14
T13A	-0.153 ± 0.064
T13S	-0.078 ± 0.057
T13M	-0.054 ± 0.071

Variant	abundance fitness
T13V	-0.041 ± 0.055
T13I	-0.02 ± 0.1
T13H	-0.178 ± 0.11
T13G	-0.417 ± 0.062
T13L	-0.104 ± 0.049
N20G	-0.081 ± 0.054
N20H	-0.035 ± 0.099
N20Y	-0.348 ± 0.12
N20E	-0.101 ± 0.073
N20D	0.093 ± 0.14
N20M	-0.113 ± 0.086
N20K	-0.169 ± 0.088
N20L	-0.191 ± 0.055
N20I	-0.609 ± 0.31
N20R	-0.18 ± 0.047
N20A	-0.162 ± 0.058
N20Q	-0.329 ± 0.093
N20C	-0.348 ± 0.16
N20W	-0.902 ± 0.17
N20V	-0.608 ± 0.086
N20P	-1 ± 0.16
N20F	-0.196 ± 0.12
